Measurements taken from the DeepSol protein solubility set.

Assay: soluble on expression in E. coli; label from the status in PepcDB or PDB records

Row | Sequence | soluble on expression in E. coli
1 | MGSDKIHHHHHHLSTSQPAEPGDEIARLGALAADFRRRLELDPGAIYPAHAECLWRLGNLQIAQGDVEAGLLSISDSVGLYRAIAQAQPDSYAVQLASLLNSQSNMLAEASHLEEARAIASDAVEHARSAMDDYGDQARFVLVSALINLAGLKMRSGDTAGTVDELAQAVEVFRDGGTAGQPFLGSMVEALHRAAMAFTEVGLWNEAIDTRRLLIGLFGQAPPSAVVQLLMLTLQQASVGLAGTGDTAKALVHANEAVDLARMLFAADGQANRLALAQAVGNLAGRHHDAGSLKEALDLSLEAVDLFQDAVSMDPIHAVPSLIVTLDCMASILTALGLPDQAATVREQRSQLQETLEIIAPRAN | not soluble
2 | MDLERLAQRLEGLRGYLDIPQKETRLKELERRLEDPSLWNDPEAARKVSQEAARLRRTVDTFRSLESDLQGLLELMEELPAEEREALKPELEEAAKKLDELYHQTLLNFPHAEKNAILTIQPGAGGTEACDWAEMLLRMYTRFAERQGFQVEVVDLTPGPEAGIDYAQILVKGENAYGLLSPEAGVHRLVRPSPFDASGRRHTSFAGVEVIPEVDEEVEVVLKPEELRIDVMRASGPGAQGVNTTDSAVRVVHLPTGITVTCQTTRSQIKNKELALKILKARLYELERKKREEELKALRGEVRPIEWGSQIRSYVLDKNYVKDHRTGLMRHDPENVLDGDLMDLIWAGLEWKAGRRQGTEEVEAE | soluble
3 | MDPLSAASKIAGSGLEVQSTRLRIVSENIANARSTGDTPGADPYRRKTVTFGSELDHVSGVERVKVKKLGVDRGDFVHEYDPGNPAADTNGMVKMPNVNVLIEMADMREANRSYDANLQVIRQTRDLVASTIDLLKASQ | not soluble
4 | MGSDKIHHHHHHMKVEITVSEDRMQAYVTLRKEGSSELPLTKEELLNALLSAGINHGIKEEIIEDLARSPVYNTPVLVAEGTPPVDGEDGRVELLKKIEFSSHEGEKIDLREIPAKQRVIVRKGETIARIIPPTPGKEGMDVFGNPVKPKPGRVPEYHLGYNVATKNNEIIATKSGILVIEPNGTIHVYDTLEVDNVDYSTGNIDFPGKVVVKGDVKPDFVVKAQEDITVKGVIEAATVISFNGSITAGGIKGRGKAFVKAKKTVKAVFIESAEVEAEEVQVEKNIENSAVKAINVVVSGKGGSIRGGITIAQVKVETYFLGSPIGVKTRVEVGVDPEINEKIKLLSAQISLDRENVQKLTKLLVELRKLQGMLKDKFPPDKEALLNKVNNTLINLRDSIQKNEGELKRLKEIAEEMAKNASVVVKEVVYSGVEIVMFERVFRVEKELAKAVFYYRDGEIRVGGYSA | not soluble
5 | MDVLGALKYFRKKKKIAQKDVLPKKGKQTYRRIEIGEAKLSYEDLMTALQSLGITFNEFFFMVSDTRIMASSEVKHQIECCQMGLNNTSEKKNLIHYFYQLERNPHKNALEMSIYTDIKLTFSNDWEEIPEFDETDRMVILALISSKSYYTYYDYQMVTNPAALFSENEVLQILEQMFPVKDAELRDTQTLNVAYGFYLNIITGELYKKNYAKAREYLALVSVTTIPAEIYYIHFNLRYLKNLTYYLYTGKMRYYKEVIAVIDMIESFGDARLAEGMKKEMLQLTAGRTFNLEKGQFPLNIVTEK | not soluble
6 | MGSDKIHHHHHHAQQSSGDYYEGLSRKIGFSQMIPPHGLEITYDKTVHIIFPSPVRYVDLGSPNLIAGKADGAENVIRVKATRKHFRSETNMSVITEDGNFYTFNVKYADEPLLLNVEMCDFIHDGESVNHPNNAMEIYLQELAGESPRLVRLIMKSVYMQDKRKVKHVGSKRFGVQYLLKGLYAHGELLYFHTEVKNATHVPFDVDFVTFKIVDKKIVKRTAMQEQVIYPLRAFNYVTRVDGKKNERTVFALPKFTIPDGKKLVVEMYEKQGGRHQSFEVENEDLVRAGTVNELKVR | not soluble
7 | MSLTVPTILVIDDDVQVCETIASLLARLRYACETAHSLEQGLAILETAPVDVVFLDVRLPDGNGIDALPRIRQAPSHPEVIILTGEGDPDDAELAIQGGVWDYLVKPTPIKQTTLTLARALQYRAEKLSKGGGGTVALDLDGVVGISPSMRQCFDLVANAATTEANVLVTGETGTGKELLARTIHRNSPRRNGPFVVVDCAALTESLVESTLFGHKRGAFTGAQQDRDGLVKLADGGTLFLDEVGEMPLAIQRAFLRILQERSFRPVGGTQEIRSDFRLISATNRDLDAMVERGEFRKDLLFRLNTVHVELPPLRTRPEDLKPLAIFHMNRLAEQYGVPAKGFATDFFQQLAQYDWPGNVREFFNVLERSFVISGLEGVLYAMHLPQDVRIKITRASLARSEGHHHHHH | soluble
